Variants at the floor of the assay were thinned out.
B1: TPR 5TU (parent)
chain: GGAUCUUCUCGAUCUAACAAAAAAGACAAAUCUGCCACAAAGCUUGAGAGCAUCUUCGGAUGCAGAGGCGGCAGCCUUCGGUGGCGCGAUAGCGCCAACGUUCUCAACUAUGACACGCAAAACGCGUGCUCCGUUGAAUGGAGUUUAUCAUG

Variants of: B1
Assay: polymerase ribozyme fitness, log enrichment relative to wild type (log ratio); higher = more active; in vitro selection for triplet polymerase activity
Summary of the method: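 Mutant libraries for each subunit of a heterodimeric triplet polymerase ribozyme were made by PCR and then transcribed. Each library underwent one round of in vitro selection in triplicate: annealing with a biotinylated primer, the partner subunit and triplets, frozen incubation at −7 °C, gel excision of extended constructs, streptavidin-bead capture and RT-PCR. Input and output libraries were Illumina-sequenced, and only genotypes with ≥10 input reads and ≥1 read per output were kept. Fitness is the logarithm, base 2, of genotype enrichment over wild-type enrichment, computed from inverse-variance-weighted replicate averages.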

U13A C27A C54A U56A G65C G92C A97G U101G G140U and A12U C35G G46A C57G A60C G92U C108G G143A A147G cannot be ordered by “polymerase ribozyme fitness (log ratio)” value: at most -4.2 for the first, at most -4.2 for the second.

Going from A12U U56G A91G to U13C A29U A52C G86C A107C U109A, the “polymerase ribozyme fitness (log ratio)” value falls from -2.61 to at most -4.2.

Going from U13G A21C G48U to U13C A19C A89U C95U U146G A150U, the “polymerase ribozyme fitness (log ratio)” value falls from -1.33 to -2.94.

A12U A20C G86U G100U U151A and A12G G92A U127A U139A G143A cannot be ordered by “polymerase ribozyme fitness (log ratio)” value: at most -4.2 for the first, at most -4.2 for the second.

First: U13C A37G G126C
Second: U13C A120G U130A
The “polymerase ribozyme fitness (log ratio)” value of the first is higher: -1.85 for the first, -3.95 for the second.

Going from U13A C38U A60C G83C to A12U G58A, the “polymerase ribozyme fitness (log ratio)” value rises from at most -4.2 to -0.217.

First: A12U U61G C93U G94A U144G
Second: U13G A16U C85U U145G
The “polymerase ribozyme fitness (log ratio)” value of the first is higher: -2.83 for the first, -3.16 for the second.

Compared with U13C A21C, A12U A23C C54G U55G C79A G83U G92A G124C U145A is lower in “polymerase ribozyme fitness (log ratio)” value: 0.934 for the first, at most -4.2 for the second.

Going from U13A A52G U82A to A12U U55A C87U A119U U127C, the “polymerase ribozyme fitness (log ratio)” value falls from -0.721 to -3.82.

A12U C85G C123U U127A and A12U C87A U90C A113G C131U cannot be ordered by “polymerase ribozyme fitness (log ratio)” value: at most -4.2 for the first, at most -4.2 for the second.

First: U13A C32G A37U A52G G94A G128A U146G
Second: A12G C75U C93U U144C
The “polymerase ribozyme fitness (log ratio)” value of the first is lower: at most -4.2 for the first, -0.389 for the second.

Compared with A12U C85A U139G, A12U G86A U101G is higher in “polymerase ribozyme fitness (log ratio)” value: -0.992 for the first, -0.714 for the second.

Going from U13A C57G C96A to A12G U45A A52U C93A C118A A120U U145G, the “polymerase ribozyme fitness (log ratio)” value falls from -1.81 to at most -4.2.

First: U13A C93A
Second: U13A A28U C36U G81C
The “polymerase ribozyme fitness (log ratio)” value of the first is higher: -3.28 for the first, at most -4.2 for the second.

First: A12U C87U A119U
Second: A12G U56A A60U G65U A91U C96G A120U
The “polymerase ribozyme fitness (log ratio)” value of the first is higher: -1.23 for the first, at most -4.2 for the second.

U13C C32A A49C and A12U G42A C85U C99G cannot be ordered by “polymerase ribozyme fitness (log ratio)” value: at most -4.2 for the first, at most -4.2 for the second.

First: A12U A21C G70C G84U C132A G136A A142U
Second: A12U C35U A91G
The “polymerase ribozyme fitness (log ratio)” value of the first is lower: at most -4.2 for the first, -3.67 for the second.

Going from A12U G25U A37G A47C U77A C95G G141A to A12G U31G C118A A120G G141C, the “polymerase ribozyme fitness (log ratio)” value rises from at most -4.2 to -2.6.

Compared with A12U A19C C95U C105A, A12U A52C G84A A98G is lower in “polymerase ribozyme fitness (log ratio)” value: -1.03 for the first, -2.65 for the second.

Going from A12G U56G C85G to A12G U13G C38A A41U C95A U102C A137G, the “polymerase ribozyme fitness (log ratio)” value falls from -2.2 to at most -4.2.

First: U13A U55G C85U A121G
Second: U13C C93A
The “polymerase ribozyme fitness (log ratio)” value of the first is higher: -1.11 for the first, -2.64 for the second.

Going from U13C C93A C96A to A12U A17G C35A U44A A47C A52U C95U G152U, the “polymerase ribozyme fitness (log ratio)” value falls from -3.63 to at most -4.2.

Going from A12U U15C U56A G92A A150G to U13A A52G U56A C75U U78A C87U C93A G136C C149A, the “polymerase ribozyme fitness (log ratio)” value falls from -1.16 to at most -4.2.

Compared with A12G U145A, U13G A17U A21G A22G G50C G59A G70C C72U C125G is lower in “polymerase ribozyme fitness (log ratio)” value: 1.33 for the first, at most -4.2 for the second.

Compared with U13A A16C A91G, U13A A41C A91U C96U is lower in “polymerase ribozyme fitness (log ratio)” value: -2.83 for the first, at most -4.2 for the second.

First: A12U A21U C38A A106U C116A A119G
Second: A12G U15C A37G U44A U56A C69U C87U
The “polymerase ribozyme fitness (log ratio)” value of the first is higher: -3.18 for the first, at most -4.2 for the second.

Going from A12U A26C C36U to A12U A20U A21C C87G A142G, the “polymerase ribozyme fitness (log ratio)” value falls from -3.95 to at most -4.2.

A12U A20G U56A C75G A121G and A12U G67U G84A A110U cannot be ordered by “polymerase ribozyme fitness (log ratio)” value: at most -4.2 for the first, at most -4.2 for the second.

U13C A26C A52C and A12G U56A C76A G143U are within 0.2 log units of each other in “polymerase ribozyme fitness (log ratio)” value: -3.55 for the first, -3.46 for the second.

Going from U13A C85U U135A to A12U G92A, the “polymerase ribozyme fitness (log ratio)” value falls from -1.44 to -1.81.

Going from A12U G92U to A12G G80A C118U A119C A120G G143U, the “polymerase ribozyme fitness (log ratio)” value falls from -1.64 to -3.12.

Going from A12U A37G C69G A122C G126A A150G to A12G G84A G143A A147G, the “polymerase ribozyme fitness (log ratio)” value rises from at most -4.2 to -3.25.

A12U A20U C54U A73G A91U C99U U146G and U13A A29U U44A C72G C96U A97U cannot be ordered by “polymerase ribozyme fitness (log ratio)” value: at most -4.2 for the first, at most -4.2 for the second.

Going from U13C A20C G50C to A12G G88A U109C A142C, the “polymerase ribozyme fitness (log ratio)” value falls from -3.15 to -4.12.

First: A12U A20U G81A C87A C96A U102C C125U
Second: A12U C54A C95U
The “polymerase ribozyme fitness (log ratio)” value of the first is lower: at most -4.2 for the first, -1.84 for the second.

Compared with U13A A21C A73G C85G A89U, A12G G74C is lower in “polymerase ribozyme fitness (log ratio)” value: -2.11 for the first, -3.9 for the second.

A12U C51U and U13A G84A G136U are within 0.2 log units of each other in “polymerase ribozyme fitness (log ratio)” value: -2.53 for the first, -2.59 for the second.

U13C C93G C99A U127C and A12U A19C U44G U148C cannot be ordered by “polymerase ribozyme fitness (log ratio)” value: at most -4.2 for the first, at most -4.2 for the second.

Compared with A12U C85A C96A, U13A A39U C54G C79U G81U G94U U139C G140U is lower in “polymerase ribozyme fitness (log ratio)” value: -2.97 for the first, at most -4.2 for the second.

First: A12U G84C A142G
Second: U13A C105A A107C U134A
The “polymerase ribozyme fitness (log ratio)” value of the first is higher: -3.93 for the first, at most -4.2 for the second.

U13C C51A G83C A89G C125U and U13A A19U A37C U45A A49C C51U C76U G94A G133U U134A G140U U148A cannot be ordered by “polymerase ribozyme fitness (log ratio)” value: at most -4.2 for the first, at most -4.2 for the second.

A12U U55G A60U G83C A137U G141U and U13C C87A cannot be ordered by “polymerase ribozyme fitness (log ratio)” value: at most -4.2 for the first, at most -4.2 for the second.
